Experimental data reported in article PMC6183340 (2018).

T1: WT1 (modified WT1 235 peptide, mWT1 235) peptide on HLA-A*24:02 (human)
T1 peptide: CYTWNQMNL

T2: WT1 (natural WT1 235 peptide, nWT1 235) peptide on HLA-A*24:02 (human)
T2 peptide: CMTWNQMNL

B1: FSK1-TCR (TCR)
alpha TRAV19*01 TRAJ26*01 CDR3: CALSAAYGQNFVF
beta TRBV6-5*01 TRBJ2-1*01 CDR3: CASSYGKGLYNEQFF
B2: TM-L1-TCR (TCR)
alpha TRAV17*01 TRAJ43*01 CDR3: CATDPGYNNDMRF
beta TRBV20-1*01 TRBJ2-2*01 CDR3: CSARGQRELSGELFF
B3: TM-H2-TCR (TCR)
alpha TRAV20*02 TRAJ52*01 CDR3: CAVRGGRAGGTSYGKLTF
beta TRBV9*01 TRBJ2-3*01 CDR3: CASSVFGSSTDTQYF

Tests used:
[1] = target: T1, WT1 (modified WT1 235 peptide, mWT1 …); assay: NFAT-GFP reporter; TCR-transduced 2D3 cells, T2-2402 and titrated mWT1 235 peptide; full-length, on cells
[2] = target: T2, WT1 (natural WT1 235 peptide, nWT1 235) …; assay: NFAT-GFP reporter; TCR-transduced 2D3 cells, T2-2402 and titrated nWT1 235 peptide; full-length, on cells

Row | Binder | EC50 of peptide [1] [nM] | EC50 of peptide [2] [nM]
1 | B1 | 976 | 
2 | B2 | 1780 | 
3 | B3 | 29.3 | 180
